Data set [1] in a line: Blood clearance of radioiodinated 2C3-GUS. It is filed as in vivo, mouse. Particulars: 125I-labelled, intravenous injection into mice. As for the experimental part: 2C3-GUS was radioiodinated with ^125I to a specific activity of 5×10^6 cpm/μg. After intravenous injection into mice, the radioiodinated 2C3-GUS cleared from the blood with a t½α of about 6 hours and a t 1/2β of about 25 hours.

Another data set in a line: GUS enzymatic activity. It is filed as biochemical. An excerpt:
The 6-His GUS was pure based upon SDS-PAGE, where it ran as a single band of 75 kDa band. On gel filtration columns, the 6-His GUS runs as a tetramer of about 300 kDa.

Data set [2] concerns human NCI-H358 NSCLC tumors. The experiment in a line: In vivo localization of 2C3-GUS. The conditions noted are these: SCID mice bearing s.c. NCI-H358. Set-up: species or system mouse.
In data set [3] the test system is VEGF-mediated growth of ABAE cells. Kind of data set: Endothelial cell growth assay (MTS). The conditions noted are these: Table 5. It counts as cell-based, bovine.
Method: ABAE cells were grown in the presence of the various indicated antibodies and 0.5 nM VEGF. Growth after 4 days was determined colorimetrically by the enzymatic conversion of MTS (Owen's reagent) to a yellow formazan. […] Background was determined by growing cells without VEGF or antibody and was subtracted from the control and sample wells.
Adult bovine aortic endothelial (ABAE) cells were plated into 96-well tissue culture plates at 1500 cells/well and grown in the presence of 0.5 nM human VEGF with the addition of the various sample and control antibodies. Control wells received media with or without VEGF.
After 4 days of incubation, the cells were quantified by an MTS (3-(4,5-dimethylthiazol-2-yl)-5-(3-carboxylmethoxyphenyl)-2-(4-sulfophenyl)-2H-tetrazolium, inner salt) conversion assay, where MTS conversion to a formazan is proportional to cell number and can be followed by absorbance at 490 nm (Cell Titer 96 AQueous One Solution Cell Proliferation Assay, Promega, Madison, Wis.). The assay was performed according to the manufacturer's instructions.
Cell growth was estimated by subtracting the MTS conversion in cultures to which VEGF was not added. Results were expressed as a percentage of the MTS conversion in control cultures to which only VEGF was added (Buttke et al., 1993).
Another data set has as its system NCI-H358 NSCLC tumors. The experiment in a line: Treatment of established NCI-H358 xenografts. It is filed as in vivo, mouse. As for the experimental part:
FIG. 4. […] Mean tumor volume along with the SEM over 116 days is shown.
(§1) FIG. 5A and FIG. 5B. […] Treatments (T) were 100 μg of the IgG given i.p., except for the initial treatment that consisted of 500 μg of the IgG given i.v. Mean tumor volume along with the SEM is shown. At the end of the study (day 116), the mice were sacrificed and the tumors dissected out and weighed. […] The mice were treated every other day as indicated (T). […] Mean tumor volume along with the SE is shown.
(§2) Male nu/nu mice bearing subcutaneous NCI-H358 tumors or HT1080 fibrosarcoma 200-400 mm^3 in size were injected i.p. with test or control antibodies. The NCI-H358 bearing mice were treated with 100 μg of antibodies per injection three times a week during the first week and twice a week during the second and third week. The mice were then switched to 50 μg per injection every five days. The HT1080 bearing mice were treated with 100 μg of the indicated antibody or saline every other day throughout the duration of the study. In both studies, mice were sacrificed when their tumors reached 2500 mm^3 size or earlier if tumors began to ulcerate.
Doses were 50-100 μg every 3-5 days. […] In addition to measuring mean tumor volume (FIG. 4), photographs of the mice from each treatment group were also taken to show the differences in tumor size and appearance at the end of the study.

The test system of the next data set is NCI-H358 NSCLC. The experiment in a line: Growth inhibition of newly-implanted NCI-H358 xenografts. Particulars: 100 μg i.p. 2 times per wk from day 1, nu/nu mice. It counts as in vivo, mouse. As for the experimental part: (§3) FIG. 3A and FIG. 3B. […] FIG. 3A: 1×10^7 NCI-H358 NSCLC cells were injected subcutaneously into nu/nu mice on day 0. FIG. 3B: 5×10^6 A673 rhabdomyosarcoma cells were injected subcutaneously into nu/nu mice on day 0. Mice were injected i.p. with the indicated IgG on day 1 and 2 times/week thereafter. […] Tumors were measured 2-3 times per week. Mean and standard error is shown for the duration of the study in FIG. 3A, while data for the last day of the study (day 26) is shown in FIG. 3B.
(§4) Nu/nu mice were injected subcutaneously with either 1×10^7 NCI-H358 NSCLC cells or 5×10^6 A673 rhabdomyosarcoma cells on day 0. […] The tumors were then measured twice per wk for a period of approximately six wk for the NCI-H358 bearing mice and four wk for the A673 bearing mice. Tumor volume was calculated according to the formula: volume=L×W×H, where L=length, W=width, H=height.

For data set [4], the target named is T1, denatured VEGF121 and VEGF165 (Homo sapiens, UniProt P15692).
T1 sequence (P15692 27-191 isoform P15692-4): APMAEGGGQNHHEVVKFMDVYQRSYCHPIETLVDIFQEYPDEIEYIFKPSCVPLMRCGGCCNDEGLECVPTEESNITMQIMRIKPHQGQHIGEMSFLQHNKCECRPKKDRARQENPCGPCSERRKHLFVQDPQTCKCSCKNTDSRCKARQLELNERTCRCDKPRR
The experiment in a line: Western blot analysis. The conditions noted are these: reducing and non-reducing conditions. It is filed as binding. As for the experimental part: The nitrocellulose membrane was blocked using Sea-Block PP82-41 (East Coast Biologics, Berwick, Me.), and probed with primary antibodies using a mini-blotter apparatus (Immunetics, Cambridge, Mass.). The membranes were developed after incubation with the appropriate peroxidase-conjugated secondary antibody by ECL enhanced chemiluminescence.
Western blot analyses of anti-VEGF antibodies were conducted by separating VEGF165 in the presence of 5% FCS using SDS-PAGE on a 12% gel and analyzing by a standard western blotting protocol using ECL detection. The primary antibodies were incubated with the nitrocellulose membrane using a multi-lane mini-blotter apparatus.
Background: A western blot detects proteins with antibodies after separation by electrophoresis.

The test system of data set [5] is VEGFR2 (KDR/Flk-1; sFlk-1). The experiment in a line: ELISA, VEGF binding to VEGFR2-coated wells. On the set-up: species or system mouse. As for the experimental part: (§5) FIG. 2. […] The plate was then incubated with rabbit anti-VEGF (A-20, Santa Cruz Biotechnology, Inc.) at 1 μg/ml and developed using a peroxidase conjugated goat anti-rabbit antibody. Assays were performed in triplicate. Mean percent binding in the absence of antibody is shown, together with the standard deviation.
(§6) The assay was also performed by coating wells of a microtiter plate with either control or test IgG.
(An ELISA detects its analyte on a solid surface through an enzyme-linked reagent.)

Data set [6] concerns A673 rhabdomyosarcoma. The experiment in a line: Growth inhibition of newly-implanted A673 xenografts. It counts as in vivo, mouse. Particulars: 100 μg i.p. 2 times per wk from day 1, nu/nu mice. As for the experimental part: as §3, §4
For another data set, the system named is VEGFR1 (Flt-1/Fc). The experiment in a line: ELISA, VEGF binding to VEGFR1-coated wells. The conditions noted are these: Table 5. As for the experimental part: as §5, §6
In data set [7] the test system is LS174T colon adenocarcinoma. The experiment in a line: Treatment of established LS174T tumors. It counts as in vivo, mouse. Particulars: mice with established tumors.
The test system of data set [8] is NCI-H358 NSCLC and HT29 colon adenocarcinoma xenografts and normal organs. The experiment in a line: In vivo localization to human tumor xenografts in mice. As for the experimental part: Tumors were grown subcutaneously in immunocompromised mice (NCI-H358 NSCLC in nu/nu mice and HT29 colon adenocarcinoma in SCID mice) until the tumnor volume was approximately 1 cm^3. 100 μg of unlabeled antibody for studies using SCID mice, or 100 μg of biotinylated antibody for studies using nude mice, was injected intravenously via a tail vein. Twenty four hours later, the mice were anesthetized, perfused with PBS, and tumnor and organs including heart, lungs, liver, kidneys, intestines and spleen were collected and snap frozen in liquid nitrogen.
The tumor and organs from each mouse were sectioned on a cryostat and stained for antibody immunohistochemically as above, with the exception that sections from the nude mice were developed using peroxidase labeled streptavidin-biotin complex (Dako, Carpinteria, Calif.) and the sections from the SCID mice were developed using two peroxidase-conjugated secondary antibodies, a goat anti-mouse IgG+IgM followed by a rabbit anti-goat IgG.
100 μg of GV39M and 3E7 or isotype-matched control IgG were injected into SCID mice bearing HT29 human colonic adenocarcinomas. Twenty-four hours later, the mice were sacrificed, exsanguinated and the tumors and tissues were removed. Frozen sections of the tumors and tissues were analyzed immunohistochemically to determine the binding and distribution of the antibodies (Table 4).

The subject of another data set is HT1080 fibrosarcoma. The experiment in a line: Treatment of established HT1080 xenografts. Particulars: 100 μg i.p. every other day. It is filed as in vivo, mouse. As for the experimental part: as §1, §2
For data set [9], the system named is A673 rhabdomyosarcoma. Kind of data set: Treatment of established A673 tumors. It is filed as in vivo, mouse. Particulars: mice with established tumors.
Data set [10] addresses T2, VEGF alone or VEGF associated with sFlk-1 (VEGF:Flk-1) (Homo sapiens, UniProt P15692).
T2 sequence (P15692 27-191 isoform P15692-4): T1 sequence (P15692 27-191 isoform P15692-4)
The experiment in a line: Indirect and capture ELISA, VEGF alone vs VEGF associated with sFlk-1. It counts as binding. As for the experimental part:
The Flk-1/SEAP protein was produced and purified as described by Tessler et al. (1994). Basically, the extracellular domain of Flk-1(sFlk-1) was produced in Spodoptera frugiperda (Sf9) cells and purified by immunoaffinity techniques utilizing a monoclonal anti-Flk-1 antibody (1A8). sFlk-1 was then biotinylated and bound on avidin-coated plates.
The reactivity was determined as described above for the initial screening.
A capture ELISA was also developed. In the capture ELISA, microtiter plates were coated overnight at 4° C. with 100 ng of the indicated antibody. […] Streptavidin conjugated to peroxidase (Kirkegaard & Perry Laboratories, Inc.), diluted 1:2000, was used as a second layer and developed.

[11] abbreviates: 24 hours after i.v. antibody, 2C3 in NCI-H358/nu/nu, 3E7 and GV39M in HT29/SCID mice.

As to 2C3-GUS [Clone 2C3-GUS], in data set [1], the “t 1/2β, clearance from the blood” value is on record as “about 25 hours” and the “t½α, clearance from the blood” value is reported as “about 6 hours”. Moreover, the “Enzymatic activity of GUS” value in the data set “GUS enzymatic activity” is given as “retained enzymatic activity”. In data set [2], the “Localization in tumor after i.v. injection” value is “specifically localized to tumor vasculature and surrounding tumor stroma”; the “Staining of normal tissues after i.v. injection” value was “unstained”.
For “2C3: anti-VEGF monoclonal antibody, IgG2a,k, hybridoma ATCC PTA 1595; blocks VEGF binding to VEGFR2 but not VEGFR1 [Clone 2C3]”, the “Blocks VEGF-induced proliferation” value in [3] is “Yes”. The “Mean tumor volume after approximately 14 wk of treatment” value with NCI-H358 NSCLC tumors (FIG. 5A study, 100 μg, at start 480 mm^3 (2C3), 428 mm^3 (3E7)) was found to be 84 mm^3. In the data set on NCI-H358 NSCLC tumors (FIG. 5A study, approximately 14 wk), the “Decrease in mean tumor volume” value was “approximately 80%”. The “Mean tumor weight at the end of the study” value in the data set with NCI-H358 NSCLC tumors (FIG. 5A study, day 116) came out at 0.054 g. Moreover, the “Mean tumor volume at the end of the study, % of the initial mean tumor volume” value in the data set with NCI-H358 NSCLC tumors (established tumors 300-450 mm^3, 50-100 μg i.p. every 3-5 days, approximately 10 weeks of treatment) is recorded as 30%. In the data set with NCI-H358 NSCLC, the “Final tumor volume, NCI-H358 NSCLC” value is “approximately 150 mm^3”. Also, the “Reactivity with VEGF on western blots” value in data set [4] was “react”. Also, the “Blocking of VEGF binding to VEGFR2 in ELISA” value in data set [5] (100-1000 fold excess) was “blocked”. In addition, in data set [5] (100 fold molar excess over VEGF), the “Reduction in VEGF binding to VEGFR2” value is “about 74%”. Also, the “VEGF bound to VEGFR2-coated wells, % of the amount bound in the absence of antibody” value in data set [5] (1000-fold molar excess over VEGF (1 nM VEGF)) is recorded as approximately 19%. Besides, the “Reduction in VEGF binding to VEGFR2” value in data set [5] (1000 fold molar excess over VEGF) is on record as “about 81%”. Also, the “Blocks VEGF from binding to VEGFR2” value in [5] (Table 5) was “Yes”. In the data set with A673 rhabdomyosarcoma [6], the “Final tumor volume, A673 rhabdomyosarcoma” value is “approximately 150 mm^3”. Besides, the “Blocks VEGF from binding to VEGFR1” value in the data set on VEGFR1 (Flt-1/Fc) is “No”. The “Effect on growth of established LS174T tumors” value in data set [7] is “significantly slowed the growth”. For the same substance, in data set [8] (setting [11]), the “Immunohistochemical Reactivity, Heart” value is “−”; the “Immunohistochemical Reactivity, Intestine” value is “−”; the “Immunohistochemical Reactivity, Kidney” value is recorded as “−”; the “Immunohistochemical Reactivity, Liver” value is “−”. In data set [8] (setting [11]), the “Immunohistochemical Reactivity, Lung” value is “−”; the “Immunohistochemical Reactivity, Spleen” value is on record as “−”; the “Immunohistochemical Reactivity, Tumor” value is 3+. In addition, the “In vivo tumor localization pattern” value in data set [8] (CT connective tissue, BV blood vessels) is “Moderate to strong”. Moreover, the “Localization in the HT29 human tumor model” value in data set [8] (HT29) is reported as “localized strongly to the connective tissue”. Moreover, the “In vivo normal mouse tissue localization” value in data set [8] (mouse, in vivo) is given as “None detectable”. In data set [8] (mouse, in vivo, iv), the “Structure specifically bound after i.v. injection” value is given as “tumor stroma”. Besides, the “Effect on growth of HT1080 tumors” value in the data set with HT1080 fibrosarcoma is recorded as “arrested the growth of the tumors”. Further, in the data set with A673 rhabdomyosarcoma [9], the “Effect on growth of established A673 tumors” value was “significantly slowed the growth”. For the same substance, the “Predominant Reactivity” value in data set [10] is on record as “VEGF”.

The record behind these values is patent US6416758B1 (Board of Regents, The University of Texax System, priority 1999, dated 2002).
